Results published in US20090048164A1.
Like-named read-outs stand apart in the source and are kept apart here.

B1: Bad BH3 wild type, phage-displayed (peptide)
peptide: NLWAAQRYGRELRRMSDEFVDSFKKG
B2: Bid BH3 Q1A, phage-displayed (peptide)
peptide: AEDIIRNIARHLAQVGDSMDRSIPPG
B3: Bid BH3 E2A, phage-displayed (peptide)
peptide: QADIIRNIARHLAQVGDSMDRSIPPG
B4: Bid BH3 D3A, phage-displayed (peptide)
peptide: QEAIIRNIARHLAQVGDSMDRSIPPG
B5: Bid BH3 I4A, phage-displayed (peptide)
peptide: QEDAIRNIARHLAQVGDSMDRSIPPG
B6: Bid BH3 I5A, phage-displayed (peptide)
peptide: QEDIARNIARHLAQVGDSMDRSIPPG
B7: Bid BH3 R6A, phage-displayed (peptide)
peptide: QEDIIANIARHLAQVGDSMDRSIPPG
B8: Bid BH3 N7A, phage-displayed (peptide)
peptide: QEDIIRAIARHLAQVGDSMDRSIPPG
B9: Bid BH3 R10A, phage-displayed (peptide)
peptide: QEDIIRNIAAHLAQVGDSMDRSIPPG
B10: Bid BH3 H11A, phage-displayed (peptide)
peptide: QEDIIRNIARALAQVGDSMDRSIPPG
B11: Bid BH3 Q14A, phage-displayed (peptide)
peptide: QEDIIRNIARHLAAVGDSMDRSIPPG
B12: Bid BH3 S18A, phage-displayed (peptide)
peptide: QEDIIRNIARHLAQVGDAMDRSIPPG
B13: Bid BH3 D20A, phage-displayed (peptide)
peptide: QEDIIRNIARHLAQVGDSMARSIPPG
B14: Bid BH3 R21A, phage-displayed (peptide)
peptide: QEDIIRNIARHLAQVGDSMDASIPPG
B15: Bid BH3 S22A, phage-displayed (peptide)
peptide: QEDIIRNIARHLAQVGDSMDRAIPPG
B16: Bid BH3 I23A, phage-displayed (peptide)
peptide: QEDIIRNIARHLAQVGDSMDRSAPPG
B17: Bid BH3 P24A, phage-displayed (peptide)
peptide: QEDIIRNIARHLAQVGDSMDRSIAPG
B18: Bid BH3 P25A, phage-displayed (peptide)
peptide: QEDIIRNIARHLAQVGDSMDRSIPAG
B19: Bid BH3 G26E, phage-displayed (peptide)
peptide: QEDIIRNIARHLAQVGDSMDRSIPPE
B20: Bid BH3 wild type, phage-displayed (peptide)
peptide: QEDIIRNIARHLAQVGDSMDRSIPPG
B21: Bak BH3 P1A, phage-displayed (peptide)
peptide: ASSTMGQVGRQLAIIGDDINRRYDSE
B22: Bak BH3 S2A, phage-displayed (peptide)
peptide: PASTMGQVGRQLAIIGDDINRRYDSE
B23: Bak BH3 S3A, phage-displayed (peptide)
peptide: PSATMGQVGRQLAIIGDDINRRYDSE
B24: Bak BH3 T4A, phage-displayed (peptide)
peptide: PSSAMGQVGRQLAIIGDDINRRYDSE
B25: Bak BH3 M5A, phage-displayed (peptide)
peptide: PSSTAGQVGRQLAIIGDDINRRYDSE
B26: Bak BH3 G6E, phage-displayed (peptide)
peptide: PSSTMEQVGRQLAIIGDDINRRYDSE
B27: Bak BH3 Q7A, phage-displayed (peptide)
peptide: PSSTMGAVGRQLAIIGDDINRRYDSE
B28: Bak BH3 R10A, phage-displayed (peptide)
peptide: PSSTMGQVGAQLAIIGDDINRRYDSE
B29: Bak BH3 Q11A, phage-displayed (peptide)
peptide: PSSTMGQVGRALAIIGDDINRRYDSE
B30: Bak BH3 I14A, phage-displayed (peptide)
peptide: PSSTMGQVGRQLAAIGDDINRRYDSE
B31: Bak BH3 D18A, phage-displayed (peptide)
peptide: PSSTMGQVGRQLAIIGDAINRRYDSE
B32: Bak BH3 N20A, phage-displayed (peptide)
peptide: PSSTMGQVGRQLAIIGDDIARRYDSE
B33: Bak BH3 R21A, phage-displayed (peptide)
peptide: PSSTMGQVGRQLAIIGDDINARYDSE
B34: Bak BH3 R22A, phage-displayed (peptide)
peptide: PSSTMGQVGRQLAIIGDDINRAYDSE
B35: Bak BH3 Y23A, phage-displayed (peptide)
peptide: PSSTMGQVGRQLAIIGDDINRRADSE
B36: Bak BH3 D24A, phage-displayed (peptide)
peptide: PSSTMGQVGRQLAIIGDDINRRYASE
B37: Bak BH3 S25A, phage-displayed (peptide)
peptide: PSSTMGQVGRQLAIIGDDINRRYDAE
B38: Bak BH3 E26A, phage-displayed (peptide)
peptide: PSSTMGQVGRQLAIIGDDINRRYDSA
B39: Bak BH3 wild type, phage-displayed (peptide)
peptide: PSSTMGQVGRQLAIIGDDINRRYDSE

Assays:
Test in all cases: competition phage ELISA
[1] = molecular target: Recombinant human Bcl-xL with a 25 amino acid truncation of its C-terminus (human) (UniProt Q07817)
[2] = molecular target: Recombinant human Bcl-xL with a 25 amino acid truncation of its C-terminus (human) (UniProt Q07817); remark: listed apart in the source
[3] = molecular target: mouse Mcl-1 with truncations of 151 amino acid residues at its N-terminus and 23 residues at its C-terminus (mouse) (UniProt P97287)
Sequence of mouse Mcl-1 with truncations of 151 amino acid residues at its N-terminus and 23 residues at its C-terminus (mouse) (P97287 152-308): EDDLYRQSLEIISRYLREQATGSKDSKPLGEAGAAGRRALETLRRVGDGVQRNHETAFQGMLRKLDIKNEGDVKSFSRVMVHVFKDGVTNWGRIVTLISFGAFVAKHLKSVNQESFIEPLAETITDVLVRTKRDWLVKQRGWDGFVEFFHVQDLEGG

Sequence of Recombinant human Bcl-xL with a 25 amino acid truncation of its C-terminus (human) (Q07817 1-208): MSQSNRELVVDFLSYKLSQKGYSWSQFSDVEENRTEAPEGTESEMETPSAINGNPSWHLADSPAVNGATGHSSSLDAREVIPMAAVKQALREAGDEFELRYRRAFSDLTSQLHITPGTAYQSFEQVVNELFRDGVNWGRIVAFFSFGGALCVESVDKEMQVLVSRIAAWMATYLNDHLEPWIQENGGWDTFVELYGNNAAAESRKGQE

Binder	Fold/wt [1] [fold]	IC50 [1] [nM]	IC50 [2] [nM]	Fold/wt [3] [fold]	IC50 [3] [nM]
B1	1	2	1	–	–
B2	2	24	–	1	79
B3	1	12	–	1	140
B4	1	15	–	1	96
B5	3	31	–	1	134
B6	2	21	–	1	144
B7	3	31	–	1	88
B8	1	10	–	1	54
B9	2	26	–	1	130
B10	1	9	–	1	89
B11	1	13	–	1	124
B12	1	16	–	1	104
B13	1	13	–	1	84
B14	3	32	–	1	132
B15	1	13	–	1	128
B16	1	15	–	1	142
B17	1	14	–	1	90
B18	1	16	–	1	87
B19	2	17	–	1	94
B20	1	11	–	1	99

Binder	Fold/wt [1] [fold]	IC50 [1] [nM]	IC50 [2] [nM]	Fold/wt [3] [fold]	IC50 [3] [nM]
B21	1	31	–	1	18
B22	1	28	–	1	16
B23	1	25	–	1	17
B24	1	28	–	1	14
B25	< 1	15	–	1	18
B26	< 1	14	–	1	11
B27	1	48	–	1	20
B28	3	163	–	1	29
B29	5	238	–	1	16
B30	1	66	–	1	14
B31	1	33	–	1	14
B32	2	111	–	1	23
B33	2	87	–	1	17
B34	1	37	–	1	16
B35	1	52	–	6	117
B36	1	30	–	< 1	9
B37	1	31	–	1	18
B38	1	29	–	< 1	10
B39	1	49	–	1	21
